From US20120316071A1 (published 2012)

Key:
[1] = target: T1, rHuman HGF R/c-MET/Fc Chimera, CF (R&D Systems Cat#358-MT/CF) (human, UniProt P08581 25-932); assay: ECL Multispot (MSD), antigen spotted; Fab 50 (µM); blank 332; first of duplicates
T1 construct: Bought recombinant protein; also called HGF R/Fc; Fc part of the bought chimera not given

[2] = target: T2, rHuman P-Cadherin/Fc Chimera, CF (R&D Systems Cat#861-PC) (human, UniProt P22223 108-654); assay: as above
T2 construct: Bought recombinant protein; Fc part of the bought chimera not given

[3] = target: T3, Recombinant Human DLL4 (R&D Systems Cat#1506-D4/CF) (human, UniProt Q9NR61 27-529); assay: as above
T3 construct: Bought recombinant protein; also called delta-like protein 4; rHuman DLL4

[4] = target: T4, rHuman ErbB2/Fc Chimera, CF (R&D Systems Cat#1129-ER) (human, UniProt P04626 23-652); assay: as above
T4 construct: Bought recombinant protein; Fc part of the bought chimera not given

[5] = target: T5, rHuman IGF-1 sR, CF (R&D Systems Cat#391-GR) (human, UniProt P08069 31-932); assay: as above
T5 construct: Bought recombinant soluble receptor; also called insulin-like growth factor-1 soluble receptor

[6] = target: T6, rHuman EGF R/Fc Chimera, CF (R&D Systems Cat#344-ER) (human, UniProt P00533 25-645); assay: as above
T6 construct: Bought recombinant protein; Fc part of the bought chimera not given

[7] = target: T1, rHuman HGF R/c-MET/Fc Chimera, CF (R&D …); assay: ECL Multispot (MSD), antigen spotted; Fab 0.50 (µM); blank 95; first of duplicates
[8] = target: T2, rHuman P-Cadherin/Fc Chimera, CF (R&D …); assay: as above
[9] = target: T3, Recombinant Human DLL4 (R&D Systems …); assay: as above
[10] = target: T4, rHuman ErbB2/Fc Chimera, CF (R&D …); assay: as above
[11] = target: T5, rHuman IGF-1 sR, CF (R&D Systems …); assay: as above
[12] = target: T6, rHuman EGF R/Fc Chimera, CF (R&D …); assay: as above
[13] = target: T1, rHuman HGF R/c-MET/Fc Chimera, CF (R&D …); assay: ECL Multispot (MSD), antigen spotted; Fab 500 (µM); blank 570; first of duplicates
[14] = target: T2, rHuman P-Cadherin/Fc Chimera, CF (R&D …); assay: as above
[15] = target: T3, Recombinant Human DLL4 (R&D Systems …); assay: as above
[16] = target: T4, rHuman ErbB2/Fc Chimera, CF (R&D …); assay: as above
[17] = target: T5, rHuman IGF-1 sR, CF (R&D Systems …); assay: as above
[18] = target: T6, rHuman EGF R/Fc Chimera, CF (R&D …); assay: as above
[19] = target: T1, rHuman HGF R/c-MET/Fc Chimera, CF (R&D …); assay: ECL Multispot (MSD), antigen spotted; Fab 5 (µM); blank 102; first of duplicates
[20] = target: T2, rHuman P-Cadherin/Fc Chimera, CF (R&D …); assay: as above
[21] = target: T3, Recombinant Human DLL4 (R&D Systems …); assay: as above
[22] = target: T4, rHuman ErbB2/Fc Chimera, CF (R&D …); assay: as above
[23] = target: T5, rHuman IGF-1 sR, CF (R&D Systems …); assay: as above
[24] = target: T6, rHuman EGF R/Fc Chimera, CF (R&D …); assay: as above

T1 sequence (P08581 25-932, change not shown): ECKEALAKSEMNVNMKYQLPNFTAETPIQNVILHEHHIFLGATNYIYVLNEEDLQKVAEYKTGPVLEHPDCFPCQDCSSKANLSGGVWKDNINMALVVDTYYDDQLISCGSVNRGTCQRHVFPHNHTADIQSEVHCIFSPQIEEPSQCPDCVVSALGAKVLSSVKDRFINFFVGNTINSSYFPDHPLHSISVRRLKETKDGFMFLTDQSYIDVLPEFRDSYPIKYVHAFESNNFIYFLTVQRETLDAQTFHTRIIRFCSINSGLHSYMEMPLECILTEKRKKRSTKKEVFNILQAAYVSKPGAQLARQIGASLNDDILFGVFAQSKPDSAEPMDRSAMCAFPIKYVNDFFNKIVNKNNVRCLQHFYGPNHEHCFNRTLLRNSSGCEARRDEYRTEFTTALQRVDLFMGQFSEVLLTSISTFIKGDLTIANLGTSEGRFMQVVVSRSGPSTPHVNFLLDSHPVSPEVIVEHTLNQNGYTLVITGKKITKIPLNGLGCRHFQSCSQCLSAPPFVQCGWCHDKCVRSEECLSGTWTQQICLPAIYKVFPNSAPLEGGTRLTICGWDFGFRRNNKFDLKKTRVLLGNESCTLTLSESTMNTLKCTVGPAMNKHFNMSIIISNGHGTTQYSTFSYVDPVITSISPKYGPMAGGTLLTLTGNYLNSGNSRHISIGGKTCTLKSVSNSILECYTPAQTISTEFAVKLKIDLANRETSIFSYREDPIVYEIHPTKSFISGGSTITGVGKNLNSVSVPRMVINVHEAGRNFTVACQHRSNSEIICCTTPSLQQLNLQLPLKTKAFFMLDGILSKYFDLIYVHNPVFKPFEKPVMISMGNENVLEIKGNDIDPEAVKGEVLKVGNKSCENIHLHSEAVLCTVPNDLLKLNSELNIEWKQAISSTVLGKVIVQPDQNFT

B1: Fab VH1-46_IGHD6-6*01_IGHJ1*01 S102A/S103P/S104F/H111F (APFF) & L6_IGKJ1*01 (Fab, V domains shown)
VH: QVQLVQSGAEVKKPGASVKVSCKASGYTFTSYYMHWVRQAPGQGLEWMGIINPSGGSTSYAQKFQGRVTMTRDTSTSTVYMELSSLRSEDTAVYYCAREEYAPFSAEYFQFWGQGTLVTVSS
VL: not shown
notes: Tested as a Fab made in E. coli: VH cloned in Plasmid A (CH1 constant region, His6 and Flag tags), VL in Plasmid C (kappa constant region); also called H:APFF & L:wt
Work on B1 yielded an ECL signal [1] of 368, an ECL signal [2] of 349 and an ECL signal [3] of 79400. For the same binder, the ECL signal [4] was 394, the ECL signal [5] was 283 and the ECL signal [6] was 452. It also gave an ECL signal [7] of 104, an ECL signal [8] of 106 and an ECL signal [9] of 8320. It also gave an ECL signal [10] of 130, an ECL signal [11] of 94 and an ECL signal [12] of 137. For the same binder, the ECL signal [13] was 945, the ECL signal [14] was 1010 and the ECL signal [15] was 26900. For the same binder, the ECL signal [16] was 908, the ECL signal [17] was 722 and the ECL signal [18] was 2410. For the same binder, the ECL signal [19] was 208, the ECL signal [20] was 290 and the ECL signal [21] was 76300. It also gave an ECL signal [22] of 225, an ECL signal [23] of 232 and an ECL signal [24] of 229.
